Consider one molecule from patent US20130115626A1 (Genentech, published 2013).

The test has as its target T1, full length human NRP1 on transfected HEK-293 cells (human, UniProt O14786 22-923).
T1 construct: whole, on cells; also called HEK-293 cells transfected with human NRP1
Briefly: immunohistochemistry on transfected HEK-293 cells, antibody at 1 ug/ml; cells with empty vector as negative control. The procedure: Immunohistochemistry (IHC) was performed on freshly cut tissue sections following standard procedure. […] The specificity of the anti-NRP1 antibody was assessed using HEK-293 cells transfected with human NRP1 and empty vector as control (see FIGS. 1A and 1B). To assess expression, whole sections were scored semi-quantitatively on a scale of zero (no expression) to three (very strong signal), according to the intensity of chromagen deposition in ≧10% of neoplastic cells or endothelium.

T1 sequence (O14786 22-923): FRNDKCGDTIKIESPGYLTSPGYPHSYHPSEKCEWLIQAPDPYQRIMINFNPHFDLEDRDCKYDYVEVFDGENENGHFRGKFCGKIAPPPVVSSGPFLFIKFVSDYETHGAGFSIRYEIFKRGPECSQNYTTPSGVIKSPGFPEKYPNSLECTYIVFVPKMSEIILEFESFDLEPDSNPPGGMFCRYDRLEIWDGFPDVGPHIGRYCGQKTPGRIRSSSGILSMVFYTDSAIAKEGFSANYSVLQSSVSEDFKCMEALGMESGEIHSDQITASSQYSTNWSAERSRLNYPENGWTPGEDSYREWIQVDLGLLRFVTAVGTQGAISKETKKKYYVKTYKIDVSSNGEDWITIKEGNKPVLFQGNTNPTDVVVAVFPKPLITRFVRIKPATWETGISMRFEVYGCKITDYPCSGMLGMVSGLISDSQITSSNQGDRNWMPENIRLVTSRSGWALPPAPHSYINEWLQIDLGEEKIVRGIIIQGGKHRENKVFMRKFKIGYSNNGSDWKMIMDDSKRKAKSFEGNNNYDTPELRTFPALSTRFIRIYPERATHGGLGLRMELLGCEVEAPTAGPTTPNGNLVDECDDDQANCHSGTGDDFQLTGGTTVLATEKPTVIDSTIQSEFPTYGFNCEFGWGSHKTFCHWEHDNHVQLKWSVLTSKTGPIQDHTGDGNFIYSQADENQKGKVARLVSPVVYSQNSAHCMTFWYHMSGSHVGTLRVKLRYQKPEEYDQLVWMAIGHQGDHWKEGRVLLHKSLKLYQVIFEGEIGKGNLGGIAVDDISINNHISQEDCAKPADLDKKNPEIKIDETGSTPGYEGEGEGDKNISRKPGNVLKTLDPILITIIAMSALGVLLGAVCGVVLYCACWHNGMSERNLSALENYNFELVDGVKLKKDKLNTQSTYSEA

B1: monoclonal anti-NRP1 antibody 7130 (antibody, V domains shown)
VH: QLVEESGGGLVTPGGTLTLTCTASGFTISNYHMSWVRQAPGKGLEWIGIIYAVSAATWSATWVKGRFTISKTLTTVDLKMTSLTAADTATYFCARVRAPGDSTYYDLWGPGTLVTVSS
VL: AVVMTQTASPVSAVVGGTVTINCQASQTISNNWLSWYQQKPGQPPKLLIYKASILASGVPSRFSGSGSGTEFTLTISGVQCDDAATYYCLYGHYITTSAHNAFGGGTEVVVKG
notes: Rabbit monoclonal antibody from a hybridoma (rabbit immunised with human soluble NRP1)
For B1, the binding result is recorded as “binds”.
